The data set “crystal structure” concerns the molecule itself. Description: crystal structure.
Substrate in data set [1]: Cc1cc2nc3c(=O)[nH]c(=O)nc-3n(C[C@H](O)[C@H](O)[C@H](O)COP(=O)(O)OP(=O)(O)OC[C@H]3O[C@@H](n4cnc5c(N)ncnc54)[C@H](O)[C@@H]3O)c2cc1C
Put plainly: HPLC of MTA-CoA formation, initial rates, nonlinear fit. It counts as biochemical, Roseovarius nubinhibens. To be noted: MMPA-CoA as substrate, pH 9.0, 40°C, varied: cofactor.

Substrate in data set [2]: CSCCC(=O)SCCNC(=O)CCNC(=O)[C@H](O)C(C)(C)COP(=O)(O)OP(=O)(O)OC[C@H]1O[C@@H](n2cnc3c(N)ncnc32)[C@H](O)[C@@H]1OP(=O)(O)O
The description is as above. To be noted: FAD, pH 9.0, 40°C. The class given is biochemical, Roseovarius nubinhibens.

Where a chain is given by its changes, count along the chain named. Names and notes keep the numbering of the source.

B1: DmdB Lys523Ala mutant (Ruegeria lacuscaerulensis ITI_1157) (enzyme, UniProt P0DX84 1-539, looked up)
chain: MLGQMMTQPLLISSLIDHAARYHGQTEIVSVETDGTVTRTNWGEIAANARRMGSALTKLGLQPQDRIGTLAWNNRRHLEIYYAASGAGFVCHTINPRLFPEQLVYIINHAQDRVLFFDATFLPLVAAIRDQLTEVKHFVLMGPRNEDALQQIPGLEFYDELIETGDTDFEWPVFDENTASSLCYTSGTTGHPKGVLYSHRSTVLHSFASNTRDVIGYSAMDVVMPVVPMFHVNAWGSPYGCAMSGAQMVLPGPDLHGEALVNLIDTYGVTLAMGVPTIWQGLLAHAAKCGTKLESLERTVIGGAACPPSMIATFREKYGVDTVHAWGMSEMSPLGTANIPLAKHRKLPIEEQHKLRENQGRPPFGVELKIVDDDGNDLPHDGVTQGDLMVRGHWVLDSYFQLKDQELLQDGWFATGDVATLDPDGYMTIRDRSKDIIKSGGEWISSVELENIAVAHPKLATAAVIGVPHPKWDERPLLVAVKAEGEDPSEAELLEFFDGKIAKWQVPDKVVFVDALPLNATGAVLKRKLRDEFKDALTG
Turning to B1, the binding result in the data set “crystal structure” is reported as “binds”.

B2: DmdC (ISM) (Roseovarius nubinhibens ISM; T170A) (protein)
chain: MTRYTAPTQDIQYLLHDVLDVANDPTPGYAELEPDFTSAVLEEAGKIAGEVLHPLNAVGDQEGCVLENGVVRPPKGFKEAFDQVREGGWTALDLPEQYGGQNMPYLLGTAVGEMFSGANQAFTMYQGLTHGAASAILVHGTDQQKDTYLPKMFSCDWTGTMNLTEPHCGADLGLMRSKAVPQDDGSYAISGQKIFISAGEHDMAENIIHLVLAKIPGGPEGIKGVSLFIVPKFLVKEDGSLGERNGVKCSKIEEKMGIHGNSTCVMDYDGAKGWLLGEEHKGMRAMFTMMNEARIGVGMQGLAQAEVAYQNALDYARDRLQGRSVTGVENPDGPADPLIVHPDIRRNLLDQKSFIEGARAFLLWGAQMIDRAERGKDEAAHGMVSLLTPVIKGFLTDEGYDMTVQAQQVYGGHGYIEETGMSQFTRDARIAMIYEGANGVQALDLVGRKLAQDGGKHVMAFFDLVKGFIKEAGTDGAMAEFTEPLKSASKDLQSAGMFFMQNGMKNPNAALAGSYDFMHLFGHVCLGLMWGRMAEASLKALAEGRGDANFHETKLATARFYMTRRLPATKLHLARIESGADPVMALDADRF
As usually defined, the Km is the concentration of substrate that gives half-maximal velocity. With B2, the Km in data set [1] was determined as 0.1125 ± 0.0045 mM.

B3: DmdC (ISM) (Roseovarius nubinhibens ISM; R284A) (protein)
chain: B2 chain with A170T, R284A
Take B3: the Km in data set [2] was 12.4 ± 1.0 mM.
